The nature of this data set: self-splicing fitness, log relative to wild type (ln ratio); higher = more splicing; Tetrahymena group I intron in knt gene, E. coli kanamycin selection, DiMSum; sequences stand for … in CUCUCU…GGAGGGAAAAGUUAUCAGGCAUGCACCUGGUAGCUAGUCUUUAAACCAAUAGAUUGCAUCGGUUUAAAAGGCAAGACCGUCAAAUUGCGGGAAAGGGGUCAACAGCCGUUCAGUACCAAGUCUCAGGGGAAACUUUGAGAUGGCCUUGCAAAGGGUAUGGUAAUAAGCUGACGGACAUGGUCCUAACCACGCAGCCAAGUCCUAAGUCAACAGAUCUUCUGUUGAUAUGGAUGCAGUUCACAGACUAAAUGUCGGUCGGGGAAGAUGUAUUCUUCUCAUAAGAUAUAGUCGGACCUCUCCUUAAUGGGAGCUAGCGGAUGAAGUGAUGCAACACUGGAGCCGCUGGGAACUAAUUUGUAUGCGAAAGUAUAUUGAUUAGUUUUGGAGUACUCGUGGUCG
In a few lines: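 Fitness was computed with DiMSum as the error-weighted combination of replicate fold changes, kanamycin versus none, each normalised to wild type. The library randomised all eight intron nucleotides of the P1ex region, with the intron placed in the knt kanamycin-resistance gene on pET-22b(+) in E. coli BL21(DE3). Six replicate transformations were grown overnight at 37°C or 30°C on LB agar with or without 25 μg/mL kanamycin, plus 100 μg/mL carbenicillin, 50 μM IPTG and 0.2% rhamnose. Pooled colonies were amplicon-sequenced on an Illumina HiSeq 2500.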

± gives the uncertainty stated by the source.

As to CUACAGCAAUAUUACGAGAG, the “self-splicing fitness (ln)” value by setting is: (30 °C) -2.79 ± 0.16; (37 °C) -2.21 ± 0.18.

For GCGCAGCAAUAUUACGGGGC, the “self-splicing fitness (ln)” value runs as follows: (30 °C) -3.33 ± 0.18; (37 °C) -2.75 ± 0.38.

On to GAUCAGCAAUAUUACGUCCC, for which the “self-splicing fitness (ln)” value is -2.07 ± 0.41 (30 °C) and -0.381 ± 0.22 (37 °C).

With AGGGAGCAAUAUUACGCUUU, the “self-splicing fitness (ln)” value is, setting by setting: (30 °C) -2.49 ± 0.45; (37 °C) -2.48 ± 0.5.

With AGAGAGCAAUAUUACGUGGC, the “self-splicing fitness (ln)” value runs as follows: (30 °C) -3.07 ± 0.25; (37 °C) -1.59 ± 0.35.

For CCGAAGCAAUAUUACGACUC, under “30 °C”, the “self-splicing fitness (ln)” value is -3.36 ± 0.32.

UCCGAGCAAUAUUACGUGAU: the “self-splicing fitness (ln)” value is -4.03 ± 0.4 (30 °C) and -1.91 ± 0.41 (37 °C).

As for AUACAGCAAUAUUACGGACC, the “self-splicing fitness (ln)” value reads like this: (30 °C) -0.965 ± 0.21; (37 °C) -1.07 ± 0.26.

Regarding UUAGAGCAAUAUUACGCCAG, the “self-splicing fitness (ln)” value reads like this: (30 °C) -0.402 ± 0.15; (37 °C) 0.228 ± 0.23.

With CUUGAGCAAUAUUACGUCAA, the “self-splicing fitness (ln)” value by setting is: (30 °C) -3.45 ± 0.21; (37 °C) -2.19 ± 0.23.

In the case of AAAAAGCAAUAUUACGCCAA, the “self-splicing fitness (ln)” value is -2.26 ± 0.17 (30 °C) and -1.33 ± 0.12 (37 °C).

CUCCAGCAAUAUUACGUCCU: the “self-splicing fitness (ln)” value is, setting by setting: (30 °C) -3.42 ± 0.28; (37 °C) -3.01 ± 0.38.

Consider UAUAAGCAAUAUUACGGGAC, for which the “self-splicing fitness (ln)” value reads like this: (30 °C) -4.01 ± 0.37; (37 °C) -2.76 ± 0.32.

On to AGAAAGCAAUAUUACGAUGA, for which the “self-splicing fitness (ln)” value is, setting by setting: (30 °C) -0.734 ± 0.1; (37 °C) -0.785 ± 0.11.

GUACAGCAAUAUUACGGAUU: the “self-splicing fitness (ln)” value was -2.88 ± 0.11 (30 °C) and -0.823 ± 0.084 (37 °C).

In the case of AUGAAGCAAUAUUACGACCG, the “self-splicing fitness (ln)” value is, setting by setting: (30 °C) -0.584 ± 0.24; (37 °C) -0.447 ± 0.27.

On to AGCCAGCAAUAUUACGACGC, for which the “self-splicing fitness (ln)” value by setting is: (30 °C) -1.66 ± 0.14; (37 °C) -0.853 ± 0.16.

UGUCAGCAAUAUUACGAUAC: the “self-splicing fitness (ln)” value is -2.92 ± 0.24 (30 °C) and -2.41 ± 0.22 (37 °C).

For the sequence CAGCAGCAAUAUUACGGGUC, the “self-splicing fitness (ln)” value by setting is: (30 °C) -2.33 ± 0.14; (37 °C) -1.96 ± 0.19.

On to ACCGAGCAAUAUUACGAGCG, for which the “self-splicing fitness (ln)” value reads like this: (30 °C) -3.24 ± 0.21; (37 °C) -0.734 ± 0.16.

Consider GAAGAGCAAUAUUACGUCAA, for which the “self-splicing fitness (ln)” value runs as follows: (30 °C) -3.04 ± 0.27; (37 °C) -2.16 ± 0.22.

As to GUGCAGCAAUAUUACGACUU, the “self-splicing fitness (ln)” value (30 °C) was -0.219 ± 0.087 and the “self-splicing fitness (ln)” value (37 °C) turned out to be 0.408 ± 0.093.

Regarding UCGCAGCAAUAUUACGGUGC, the “self-splicing fitness (ln)” value is -4.1 ± 0.24 (30 °C) and -1.62 ± 0.15 (37 °C).

Turning to UGCUAGCAAUAUUACGACAA, the “self-splicing fitness (ln)” value is, setting by setting: (30 °C) -1.15 ± 0.13; (37 °C) -0.207 ± 0.14.

Regarding CCAGAGCAAUAUUACGGCGC, the “self-splicing fitness (ln)” value is, setting by setting: (30 °C) -3.67 ± 0.25; (37 °C) -2 ± 0.26.

On to AACCAGCAAUAUUACGUUCC, for which the “self-splicing fitness (ln)” value (30 °C) is -2.94 ± 0.17 and the “self-splicing fitness (ln)” value (37 °C) was -0.871 ± 0.14.

In the case of CCGAAGCAAUAUUACGACAA, the “self-splicing fitness (ln)” value is, setting by setting: (30 °C) -3.59 ± 0.4; (37 °C) -2.52 ± 0.29.

For the sequence GUACAGCAAUAUUACGCCAG, the “self-splicing fitness (ln)” value reads like this: (30 °C) -3.75 ± 0.24; (37 °C) -2.32 ± 0.45.

As to CAGCAGCAAUAUUACGGUGA, the “self-splicing fitness (ln)” value (30 °C) was -2 ± 0.083 and the “self-splicing fitness (ln)” value (37 °C) was -0.913 ± 0.086.

Turning to GCAUAGCAAUAUUACGAAUG, the “self-splicing fitness (ln)” value (30 °C) is -2.33 ± 0.096 and the “self-splicing fitness (ln)” value (37 °C) is -1.85 ± 0.12.

On to UGCCAGCAAUAUUACGUCCG, for which the “self-splicing fitness (ln)” value is -0.88 ± 0.073 (30 °C) and 0.0267 ± 0.11 (37 °C).

Consider ACUAAGCAAUAUUACGUCCU, for which the “self-splicing fitness (ln)” value is -0.876 ± 0.095 (30 °C) and 0.0118 ± 0.14 (37 °C).

In the case of CUCGAGCAAUAUUACGGUAG, the “self-splicing fitness (ln)” value is, setting by setting: (30 °C) -2.62 ± 0.16; (37 °C) -0.386 ± 0.12.

On to UAUUAGCAAUAUUACGGGGG, for which the “self-splicing fitness (ln)” value by setting is: (30 °C) -4.15 ± 0.46; (37 °C) -2.75 ± 0.34.

CGAUAGCAAUAUUACGGGCU: for the setting “37 °C”, the “self-splicing fitness (ln)” value was 0.128 ± 0.17.

As for GAGAAGCAAUAUUACGCAUG, the “self-splicing fitness (ln)” value is, setting by setting: (30 °C) -1.99 ± 0.11; (37 °C) -1.04 ± 0.14.

Consider ACAUAGCAAUAUUACGCGAU, for which the “self-splicing fitness (ln)” value (30 °C) is -3.37 ± 0.21 and the “self-splicing fitness (ln)” value (37 °C) was -2.35 ± 0.25.

As for UUGUAGCAAUAUUACGACUG, the “self-splicing fitness (ln)” value is -0.0934 ± 0.12 (30 °C) and -0.0721 ± 0.14 (37 °C).

The values are drawn from the supplement of paper PMC7877785.
